In article PMC10837153, “A structural vista of phosducin-like PhLP2A-chaperonin TRiC cooperation during the ATP-driven folding cycle” (Nature Communications, 2024):

Experiments:
[1] = biological target: human TRiC (TCP-1 ring complex), his-tagged, CCT1 tagged with GFP (human) (UniProt P17987); test: cryo-EM structure; TRiC (2 mg/ml) sequentially incubated with PFD and PhLP2A in 1:2:~1, each 20 min at RT, with 1 mM AMP-PNP; 3D-focused classification
[2] = biological target: human TRiC (TCP-1 ring complex), his-tagged, CCT1 tagged with GFP (human) (UniProt P17987); test: native gel or EMSA; competition: unlabeled PhLP2A (0.01-10 μM) added to GFP-TRiC (0.25 μM) pre-incubated with AF-647 labeled PFD (1 μM); Native PAGE 4-16%, in-gel fluorescence
[3] = biological target: human TRiC (TCP-1 ring complex), his-tagged, CCT1 tagged with GFP (human) (UniProt P17987); test: native gel or EMSA; native PAGE mobility shift; 0.25 μM open TRiC, PhLP2A 0.01-10 μM, ATPase buffer (30 mM Tris pH 7.4, 120 mM KCl, 5 mM MgCl2, 1 mM DTT), about 30 min at room temperature; apparent Kd; three repetitions
[4] = biological target: human TRiC (TCP-1 ring complex), his-tagged, CCT1 tagged with GFP (human) (UniProt P17987); test: cryo-EM structure; closed TRiC: TRiC (0.8 mg/ml) with PhLP2A 1:4 for 30 min, then 1 mM ATP, 1 mM Al3(NO3)3, 6 mM NaF, 10 mM MgCl2, 50 mM KCl, 1 h at RT
[5] = biological target: human TRiC (TCP-1 ring complex), his-tagged, CCT1 tagged with GFP (human) (UniProt P17987); test: cryo-EM structure; closed TRiC: TRiC (0.8 mg/ml) with each truncated PhLP2A mutant (TXD, NTD-TXD, TXD-CTD) 1:2 for 20 min, then 1 mM ATP, 6 mM NaF, 10 mM MgCl2, 50 mM KCl, 1 h at RT
[6] = biological target: human TRiC (TCP-1 ring complex), his-tagged, CCT1 tagged with GFP (human) (UniProt P17987); test: cryo-EM structure; open TRiC (2 mg/ml) with each truncated PhLP2A mutant (TXD, NTD-TXD, TXD-CTD) in 1:2 molar ratio, 20 min at RT
[7] = biological target: T1, human TRiC subunit CCT4 (human, UniProt P50991 1-539); test: as above; settings: both partners purified
T1 construct: TRiC subunit CCT4, human; Subunit of m2, seen only within the TRiC complex; source: High Five insect cells, purified as a subunit of TRiC
T1 sequence: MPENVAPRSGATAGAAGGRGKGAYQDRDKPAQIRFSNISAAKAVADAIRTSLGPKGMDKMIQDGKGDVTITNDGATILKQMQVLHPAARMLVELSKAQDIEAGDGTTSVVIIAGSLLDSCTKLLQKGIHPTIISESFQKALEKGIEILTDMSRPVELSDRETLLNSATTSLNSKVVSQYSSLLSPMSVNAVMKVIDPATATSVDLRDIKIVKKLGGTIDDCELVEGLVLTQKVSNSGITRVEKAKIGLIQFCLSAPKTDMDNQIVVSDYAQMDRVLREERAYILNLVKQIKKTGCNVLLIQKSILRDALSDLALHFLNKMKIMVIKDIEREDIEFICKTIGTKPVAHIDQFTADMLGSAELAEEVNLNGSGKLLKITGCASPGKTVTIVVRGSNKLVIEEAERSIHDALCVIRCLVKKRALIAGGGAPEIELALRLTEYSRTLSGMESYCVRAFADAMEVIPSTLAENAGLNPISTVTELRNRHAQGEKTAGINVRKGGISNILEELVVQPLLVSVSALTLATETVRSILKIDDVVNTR

[8] = biological target: T2, human TRiC subunit CCT3 (human, UniProt P49368 1-545); test: as above; settings: both partners purified
T2 construct: TRiC subunit CCT3, human; Subunit of m2, seen only within the TRiC complex; source: High Five insect cells, purified as a subunit of TRiC
T2 sequence: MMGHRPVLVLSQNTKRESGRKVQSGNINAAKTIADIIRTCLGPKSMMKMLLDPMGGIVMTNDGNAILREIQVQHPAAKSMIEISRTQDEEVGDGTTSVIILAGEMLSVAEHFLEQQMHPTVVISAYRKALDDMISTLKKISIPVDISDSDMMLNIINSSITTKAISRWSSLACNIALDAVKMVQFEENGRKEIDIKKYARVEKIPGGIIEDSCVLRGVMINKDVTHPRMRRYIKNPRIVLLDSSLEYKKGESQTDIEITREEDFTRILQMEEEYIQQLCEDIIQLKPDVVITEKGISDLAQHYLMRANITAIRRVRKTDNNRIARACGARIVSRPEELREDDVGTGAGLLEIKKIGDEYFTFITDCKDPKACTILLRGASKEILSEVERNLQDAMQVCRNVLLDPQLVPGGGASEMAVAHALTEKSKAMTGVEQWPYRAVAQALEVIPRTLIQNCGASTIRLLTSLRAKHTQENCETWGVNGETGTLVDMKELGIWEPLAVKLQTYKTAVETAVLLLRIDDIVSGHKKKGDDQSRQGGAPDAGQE

human Prefoldin (from UniProt O15212 1-129) (complex)
percent of TRiC particles with PFD bound (3D classification) [1]: 25%

B1: human PhLP2A (phosducin-like protein 2A), full length (natural protein)
chain: MQDPNADTEWNDILRKKGILPPKESLKELEEEAEEEQRILQQSVVKTYEDMTLEELEDHEDEFNEEDERAIEMYRRRRLAEWKATKLKNKFGEVLEISGKDYVQEVTKAGEGLWVILHLYKQGIPLCALINQHLSGLARKFPDVKFIKAISTTCIPNYPDRNLPTIFVYLEGDIKAQFIGPLVFGGMNLTRDELEWKLSESGAIMTDLEENPKKPIEDVLLSSVRRSVLMKRDSDSEGD
modifications: AF-568 (Alexa568) label, site not stated, only in the native PAGE mobility shift and competition assays
percent of TRiC-bound PFD displaced [2]: < 70% | Kd [3]: 170 nM | percent of TRiC particles with PhLP2A bound (3D classification) [1]: 22.9% | percent of closed TRiC particles with PhLP2A in both chambers [4]: 9.5% | percent of closed TRiC particles with PhLP2A in one chamber [4]: 14%

B2: PhLP2A NTD-TXD (aa 1–211), CTD truncation (domain or fragment, human, UniProt Q9H2J4 1-211, looked up)
chain: MQDPNADTEWNDILRKKGILPPKESLKELEEEAEEEQRILQQSVVKTYEDMTLEELEDHEDEFNEEDERAIEMYRRRRLAEWKATKLKNKFGEVLEISGKDYVQEVTKAGEGLWVILHLYKQGIPLCALINQHLSGLARKFPDVKFIKAISTTCIPNYPDRNLPTIFVYLEGDIKAQFIGPLVFGGMNLTRDELEWKLSESGAIMTDLEEN
notes: PhLP2A, human, NTD and TXD, aa 1-211; also called N + TXT fragment; source: E. coli BL21 Rosetta2 pLysS, purified (nickel resin, SDX200); not shown: His6 (encoded by the 3' primer), C-terminal, kept
percent of closed TRiC particles with NTD-TXD density in the chamber [5]: 8.25% | percent of TRiC particles with NTD-TXD density in the chamber [6]: 19.8% | binding result [7]: binds | binding result [8]: binds

B3: PhLP2A TXD-CTD (aa 85–239), NTD truncation (domain or fragment, human, UniProt Q9H2J4 85-239, looked up)
chain: TKLKNKFGEVLEISGKDYVQEVTKAGEGLWVILHLYKQGIPLCALINQHLSGLARKFPDVKFIKAISTTCIPNYPDRNLPTIFVYLEGDIKAQFIGPLVFGGMNLTRDELEWKLSESGAIMTDLEENPKKPIEDVLLSSVRRSVLMKRDSDSEGD
notes: PhLP2A, human, TXD and CTD, aa 85-239; the 5' primer translates to M-KLKNKFG; also called TXT-C term; source: E. coli BL21 Rosetta2 pLysS, purified (nickel resin, SDX200); not shown: His6 (encoded by the 3' primer), C-terminal, kept
binding result [8]: binds
